# Measurements taken from patent US20090202437A1 (UMC UTRECHT HOLDING B V, published 2009).
# Biological target: T1, recombinant human MASP-2 (consisting of the two complement control regions and the serine protease domain) (human, UniProt O00187 298-686)
# T1 construct: domain: the two complement control regions and the serine protease domains; also called rMASP-2; MBL associated serine protease-2
# Assay: size-exclusion chromatography (Superose-6) of 125I-labelled rLPI incubated with rMASP-2
# T1 sequence (O00187 298-686 limits assumed): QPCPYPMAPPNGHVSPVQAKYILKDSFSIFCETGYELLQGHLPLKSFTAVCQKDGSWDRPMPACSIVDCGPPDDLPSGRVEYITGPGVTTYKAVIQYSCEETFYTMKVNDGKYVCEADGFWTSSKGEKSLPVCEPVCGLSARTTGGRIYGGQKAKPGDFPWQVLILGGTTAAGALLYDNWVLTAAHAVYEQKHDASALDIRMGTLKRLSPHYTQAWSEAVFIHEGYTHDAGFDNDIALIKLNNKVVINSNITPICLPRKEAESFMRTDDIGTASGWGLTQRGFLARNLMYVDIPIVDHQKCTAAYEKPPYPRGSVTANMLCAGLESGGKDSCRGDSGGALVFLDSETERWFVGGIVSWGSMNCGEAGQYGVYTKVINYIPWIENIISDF
binder,measurement,value
"recombinant LPI (Lectin Pathway Inhibitor) of Staphylococcus aureus (other, also called rLPI; 125I-LPI) STSLPTSNEYQNEKLANELKSLLDELNVNELATGSLNTYYKRTIKISGQKAMYALKSKDFKKMSEAKYQLQKIYNEIDEALKSKY",binding result,binds
